Measurements from paper PMC5762779, “The peroxisomal AAA-ATPase Pex1/Pex6 unfolds substrates by processive threading” (Nature Communications, 2018).

T1: fluorescein labeled Pex5 (S. cerevisiae, UniProt P35056 1-612, fluorescein (FAM) on a GGGK peptide joined by sortase at the C-terminal LPETGG site)
T1 construct: Pex5, S. cerevisiae W303; after labelling the chain ends LPET-GGGK-FAM; also called Pex5-FAM; source: E. coli BL21*, purified (Ni-NTA, anti-FLAG, Superdex 200), labelled with sortase and GGGK-FAM peptide; not shown: His6, C-terminal, cleaved
T1 sequence (looked up): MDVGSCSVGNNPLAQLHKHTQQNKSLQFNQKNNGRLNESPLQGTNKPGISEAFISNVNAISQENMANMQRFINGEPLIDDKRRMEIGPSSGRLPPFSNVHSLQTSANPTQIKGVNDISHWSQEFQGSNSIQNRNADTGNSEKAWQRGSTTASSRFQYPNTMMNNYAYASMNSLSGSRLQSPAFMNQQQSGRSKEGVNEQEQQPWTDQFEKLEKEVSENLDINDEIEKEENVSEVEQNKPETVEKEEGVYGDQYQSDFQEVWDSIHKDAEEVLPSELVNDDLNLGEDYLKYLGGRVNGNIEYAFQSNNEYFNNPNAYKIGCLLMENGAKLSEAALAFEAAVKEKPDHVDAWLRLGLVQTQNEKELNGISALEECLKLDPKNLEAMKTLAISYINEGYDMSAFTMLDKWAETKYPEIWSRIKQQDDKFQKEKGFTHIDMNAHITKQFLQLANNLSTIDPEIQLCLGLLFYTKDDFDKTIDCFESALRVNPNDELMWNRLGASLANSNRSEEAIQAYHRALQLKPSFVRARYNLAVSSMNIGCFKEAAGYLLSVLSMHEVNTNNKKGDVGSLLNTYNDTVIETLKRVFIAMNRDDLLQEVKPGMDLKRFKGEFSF

T2: His-Pex6-FLAG (S. cerevisiae, UniProt P33760 1-1030)
T2 construct: Pex6, S. cerevisiae W303, purified individually; not shown: His, N-terminal, kept; FLAG, C-terminal, kept
T2 sequence (looked up): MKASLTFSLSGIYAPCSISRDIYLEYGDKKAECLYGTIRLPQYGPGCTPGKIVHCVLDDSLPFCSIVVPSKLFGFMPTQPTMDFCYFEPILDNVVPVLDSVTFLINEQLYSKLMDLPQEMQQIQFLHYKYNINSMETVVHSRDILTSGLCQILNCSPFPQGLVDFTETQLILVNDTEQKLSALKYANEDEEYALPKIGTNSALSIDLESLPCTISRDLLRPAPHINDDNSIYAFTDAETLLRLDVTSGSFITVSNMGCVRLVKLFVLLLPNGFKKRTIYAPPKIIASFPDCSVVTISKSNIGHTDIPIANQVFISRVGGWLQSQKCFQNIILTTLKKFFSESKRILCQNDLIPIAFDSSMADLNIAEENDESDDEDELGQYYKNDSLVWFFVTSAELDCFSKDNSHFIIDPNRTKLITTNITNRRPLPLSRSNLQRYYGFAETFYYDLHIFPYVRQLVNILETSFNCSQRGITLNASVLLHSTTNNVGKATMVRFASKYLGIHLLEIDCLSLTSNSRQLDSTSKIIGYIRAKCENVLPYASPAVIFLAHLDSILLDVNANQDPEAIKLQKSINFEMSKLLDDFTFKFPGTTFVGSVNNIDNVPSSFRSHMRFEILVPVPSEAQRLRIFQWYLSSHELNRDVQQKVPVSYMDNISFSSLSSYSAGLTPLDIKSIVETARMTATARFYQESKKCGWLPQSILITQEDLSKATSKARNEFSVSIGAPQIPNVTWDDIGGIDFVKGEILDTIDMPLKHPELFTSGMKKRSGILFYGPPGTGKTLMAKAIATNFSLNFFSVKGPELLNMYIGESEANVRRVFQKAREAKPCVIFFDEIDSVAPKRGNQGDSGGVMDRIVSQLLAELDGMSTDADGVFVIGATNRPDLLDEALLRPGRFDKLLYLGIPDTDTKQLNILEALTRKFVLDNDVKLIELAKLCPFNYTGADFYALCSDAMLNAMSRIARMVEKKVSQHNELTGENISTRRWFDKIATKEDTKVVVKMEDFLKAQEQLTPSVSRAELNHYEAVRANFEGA


Key:
Conditions in all cases: both partners purified
fluorescein labeled Pex5 = target: T1, fluorescein labeled Pex5; assay: pull-down; MBP-Pex6/Pex1 or MBP-Pex15 1-327 on magnetic amylose resin with Pex5-FAM; same conditions as Figure 7B (350 nM Pex5-FAM, 1 h, 4 °C, 60 mM HEPES pH 7.6, 150 mM NaCl, 150 mM KCl, 10% glycerol, 0.05% Tween-20, 10 mM MgCl2, 0.5 mM EDTA, 5 mM ATP); maltose elution; Pex5 seen by its fluorescein
His-Pex6-FLAG = target: T2, His-Pex6-FLAG; assay: pull-down; 1 uM MBP-Pex15 1-327-FLAG-His on magnetic amylose resin with 0.5 uM Pex1-Strep/His-Pex6 hexamer, His-Pex1-FLAG, His-Pex6-FLAG or 5 uM His-Pex6 1-215; 1 h, 4 °C, 60 mM HEPES pH 7.6, 150 mM NaCl, 150 mM KCl, 10% glycerol, 0.05% Tween-20, 10 mM MgCl2, 0.5 mM EDTA, 5 mM ATP; maltose elution; SYPRO-Ruby or anti-His blot
[1] = target: T3, Pex1-WB2/Pex6-WB2 mutant hexamer (Pex1-E798Q-Strep/His-Pex6-E832Q) (S. cerevisiae, UniProt P24004 1-1043; P33760 1-1030, E798Q | E832Q); assay: pull-down; MBP-Pex15 1-309 or MBP-Pex15 1-253 with Pex1-WB2/Pex6-WB2; maltose elution, SDS-PAGE
T3 construct: Pex1, S. cerevisiae W303, Walker B D2 mutant; Pex6, S. cerevisiae W303, Walker B D2 mutant; also called Pex1-WB/Pex6-WB; ATPase-deficient Pex1/Pex6; source: E. coli BL21*, co-expressed, purified (Ni-NTA, Streptactin); copies: 3 + 3
T3 sequence (P24004 whole entry E798Q, one chain of several): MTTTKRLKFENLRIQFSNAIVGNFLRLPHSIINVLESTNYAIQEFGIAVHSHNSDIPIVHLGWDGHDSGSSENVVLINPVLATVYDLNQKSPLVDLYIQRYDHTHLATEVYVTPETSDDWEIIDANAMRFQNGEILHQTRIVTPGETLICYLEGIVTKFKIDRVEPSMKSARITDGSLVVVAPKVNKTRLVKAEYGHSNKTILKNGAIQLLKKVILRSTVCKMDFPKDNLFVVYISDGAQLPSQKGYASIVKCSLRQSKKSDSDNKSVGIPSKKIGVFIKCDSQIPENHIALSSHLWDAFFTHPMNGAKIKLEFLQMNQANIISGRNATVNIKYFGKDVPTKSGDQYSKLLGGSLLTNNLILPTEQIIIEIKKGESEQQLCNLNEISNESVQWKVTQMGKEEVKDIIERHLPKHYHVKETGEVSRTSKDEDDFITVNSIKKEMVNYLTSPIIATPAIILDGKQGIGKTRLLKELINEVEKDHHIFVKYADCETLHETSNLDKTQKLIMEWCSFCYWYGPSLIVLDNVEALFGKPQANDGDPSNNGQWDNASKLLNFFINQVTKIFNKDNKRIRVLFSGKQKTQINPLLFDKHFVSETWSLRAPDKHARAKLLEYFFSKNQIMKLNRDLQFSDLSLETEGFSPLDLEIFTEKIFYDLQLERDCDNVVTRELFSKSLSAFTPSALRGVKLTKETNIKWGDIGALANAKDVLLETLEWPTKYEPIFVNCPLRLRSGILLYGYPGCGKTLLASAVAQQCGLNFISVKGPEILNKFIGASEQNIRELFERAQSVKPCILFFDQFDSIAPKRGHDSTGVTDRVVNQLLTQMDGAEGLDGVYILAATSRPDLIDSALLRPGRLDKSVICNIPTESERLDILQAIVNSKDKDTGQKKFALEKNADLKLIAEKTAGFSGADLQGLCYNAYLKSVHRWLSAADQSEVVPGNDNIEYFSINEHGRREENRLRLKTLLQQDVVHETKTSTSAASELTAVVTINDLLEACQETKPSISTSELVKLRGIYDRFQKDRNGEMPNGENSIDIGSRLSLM

[2] = target: T4, Pex1-FLAG/His-Pex6 hexamer, wild type (S. cerevisiae, UniProt P24004 1-1043; P33760 1-1030); assay: inhibition of ATPase activity (ATP/NADH coupled enzyme assay); apparent KD from the concentration-dependent inhibition of the ATPase activity of 5 nM Pex1/Pex6 by titrated Pex15; 5 mM ATP, 2 uM BSA; n = 3 technical replicates
T4 construct: Pex1, S. cerevisiae W303; Pex6, S. cerevisiae W303; Heterohexamer with alternating subunits; also called WT Pex1/Pex6; Pex1/Pex6; source: E. coli BL21*, co-expressed, purified (Ni-NTA, anti-FLAG, Superose6); copies: 3 + 3
T4 sequence (P24004 whole entry, chain 1 of 2, one chain of several): as the sequence (P24004 whole entry E798Q, one chain of several) above, with Q798E counted along it

Kd [2] [µM] | Binder | further results
 | MBP-Pex15 1-327-FLAG-His (domain or fragment, S. cerevisiae, UniProt Q08215 1-327, looked up, Pex15, S. cerevisiae W303, cytosolic domain, residues 1-327; Held on magnetic amylose resin by its MBP; not shown: MBP, N-terminal, kept; FLAG, C-terminal, kept; His, C-terminal, kept) MAASEIMNNLPMHSLDSSLRDLLNDDLFIESDESTKSVNDQRSEVFQECVNLFIKRDIKDCLEKMSEVGFIDITVFKSNPMILDLFVSACDIMPSFTKLGLTLQSEILNIFTLDTPQCIETRKIILGDLSKLLVINKFFRCCIKVIQFNLTDHTEQEEKTLELESIMSDFIFVYITKMRTTIDVVGLQELIEIFIFQVKVKLHHKKPSPNMYWALCKTLPKLSPTLKGLYLSKDVSIEDAILNSIDNKIQKDKAKSKGKQRGVKQKIHHFHEPMLHNSSEEQVKVEDAFNQRTSTDSRLQSTGTAPRKKNNDITVLAGSFWAVLKHH | binding result (fluorescein labeled Pex5): binds; binding result (His-Pex6-FLAG): binds
 | MBP-Pex15 1-253 (domain or fragment, S. cerevisiae, UniProt Q08215 1-253, looked up, not shown: MBP, N-terminal, kept) MAASEIMNNLPMHSLDSSLRDLLNDDLFIESDESTKSVNDQRSEVFQECVNLFIKRDIKDCLEKMSEVGFIDITVFKSNPMILDLFVSACDIMPSFTKLGLTLQSEILNIFTLDTPQCIETRKIILGDLSKLLVINKFFRCCIKVIQFNLTDHTEQEEKTLELESIMSDFIFVYITKMRTTIDVVGLQELIEIFIFQVKVKLHHKKPSPNMYWALCKTLPKLSPTLKGLYLSKDVSIEDAILNSIDNKIQKDK | binding result [1]: binds
0.86 | Pex15 12-309 (domain or fragment, S. cerevisiae, UniProt Q08215 12-309, looked up, begins at M12 (primer 'Pex15 M12 forward', D1:p20); source: E. coli BL21*, purified (Ni-NTA, tag cleaved with PreScission protease, Superdex 200); not shown: His, C-terminal, cleaved) MHSLDSSLRDLLNDDLFIESDESTKSVNDQRSEVFQECVNLFIKRDIKDCLEKMSEVGFIDITVFKSNPMILDLFVSACDIMPSFTKLGLTLQSEILNIFTLDTPQCIETRKIILGDLSKLLVINKFFRCCIKVIQFNLTDHTEQEEKTLELESIMSDFIFVYITKMRTTIDVVGLQELIEIFIFQVKVKLHHKKPSPNMYWALCKTLPKLSPTLKGLYLSKDVSIEDAILNSIDNKIQKDKAKSKGKQRGVKQKIHHFHEPMLHNSSEEQVKVEDAFNQRTSTDSRLQSTGTAPRKK | 
8.7 | Pex15 1-309 L22A L23A (domain or fragment, S. cerevisiae, UniProt Q08215 1-309, looked up, also called Pex15 L22AL23A; source: E. coli BL21*, purified (Ni-NTA, tag cleaved with PreScission protease, Superdex 200); not shown: His, C-terminal, cleaved) MAASEIMNNLPMHSLDSSLRDAANDDLFIESDESTKSVNDQRSEVFQECVNLFIKRDIKDCLEKMSEVGFIDITVFKSNPMILDLFVSACDIMPSFTKLGLTLQSEILNIFTLDTPQCIETRKIILGDLSKLLVINKFFRCCIKVIQFNLTDHTEQEEKTLELESIMSDFIFVYITKMRTTIDVVGLQELIEIFIFQVKVKLHHKKPSPNMYWALCKTLPKLSPTLKGLYLSKDVSIEDAILNSIDNKIQKDKAKSKGKQRGVKQKIHHFHEPMLHNSSEEQVKVEDAFNQRTSTDSRLQSTGTAPRKK | 
 | MBP-Pex15 1-309 (domain or fragment, S. cerevisiae, UniProt Q08215 1-309, looked up, not shown: MBP, N-terminal, kept) MAASEIMNNLPMHSLDSSLRDLLNDDLFIESDESTKSVNDQRSEVFQECVNLFIKRDIKDCLEKMSEVGFIDITVFKSNPMILDLFVSACDIMPSFTKLGLTLQSEILNIFTLDTPQCIETRKIILGDLSKLLVINKFFRCCIKVIQFNLTDHTEQEEKTLELESIMSDFIFVYITKMRTTIDVVGLQELIEIFIFQVKVKLHHKKPSPNMYWALCKTLPKLSPTLKGLYLSKDVSIEDAILNSIDNKIQKDKAKSKGKQRGVKQKIHHFHEPMLHNSSEEQVKVEDAFNQRTSTDSRLQSTGTAPRKK | binding result [1]: binds
5.6 | Pex15 43-309 (domain or fragment, S. cerevisiae, UniProt Q08215 43-309, looked up, begins at S43 (primer 'Pex15 S43 forward', D1:p20); source: E. coli BL21*, purified (Ni-NTA, tag cleaved with PreScission protease, Superdex 200); not shown: His, C-terminal, cleaved) SEVFQECVNLFIKRDIKDCLEKMSEVGFIDITVFKSNPMILDLFVSACDIMPSFTKLGLTLQSEILNIFTLDTPQCIETRKIILGDLSKLLVINKFFRCCIKVIQFNLTDHTEQEEKTLELESIMSDFIFVYITKMRTTIDVVGLQELIEIFIFQVKVKLHHKKPSPNMYWALCKTLPKLSPTLKGLYLSKDVSIEDAILNSIDNKIQKDKAKSKGKQRGVKQKIHHFHEPMLHNSSEEQVKVEDAFNQRTSTDSRLQSTGTAPRKK | 
5.3 | Pex15 30-309 (domain or fragment, S. cerevisiae, UniProt Q08215 30-309, looked up, begins at E30 (primer 'Pex15 E30 forward', D1:p20); source: E. coli BL21*, purified (Ni-NTA, tag cleaved with PreScission protease, Superdex 200); not shown: His, C-terminal, cleaved) ESDESTKSVNDQRSEVFQECVNLFIKRDIKDCLEKMSEVGFIDITVFKSNPMILDLFVSACDIMPSFTKLGLTLQSEILNIFTLDTPQCIETRKIILGDLSKLLVINKFFRCCIKVIQFNLTDHTEQEEKTLELESIMSDFIFVYITKMRTTIDVVGLQELIEIFIFQVKVKLHHKKPSPNMYWALCKTLPKLSPTLKGLYLSKDVSIEDAILNSIDNKIQKDKAKSKGKQRGVKQKIHHFHEPMLHNSSEEQVKVEDAFNQRTSTDSRLQSTGTAPRKK | 
